Reference: patent US6512097
Where two headings read alike, the source gives them in different places.

Tests used:
Assay in all cases: SPR BIAcore
[1] = target: T1, c-erbB-2 ECD with a Ser-Gly-His6 C-terminal fusion (UniProt P04626 23-652)
T1 construct: extracellular domain; Expressed from CHO cells, IMAC purified; coupled to a CM5 chip, coated on plates, or biotinylated with NHS-LC-biotin; also called c-erbB-2 extracellular domain; biotinylated c-erbB-2 ECD

[2] = target: T1, c-erbB-2 ECD with a Ser-Gly-His6 …; remark: listed apart in the source
Procedure: All assays were performed in triplicate. Briefly, […] of radioiodinated sFv was added to 5×10^6 SK-OV cells in the presence of increasing concentrations of unlabeled sFv from the same preparation. After a 30 minute incubation at 20° C., the samples were washed with PBS at 4° C. and centrifuged at 500 g. The amount of labeled sFv bound to the cells was determined by counting the pellets in a gamma counter and the K_a, and K_d were calculated using the EBDA program (V 2.0, G. A. McPherson, 1983). The K_d of all the other isolated sFv were determined using surface plasmon resonance in a BIAcore (Pharmacia). In a BIAcore flow cell, approximately 1400 resonance units (RU) of c-erbB-2 ECD (25 μg/ml in 10 mM sodium acetate, pH 4.5) was coupled to a CM5 sensor chip (Johnsson et al. (1991), supra). Association and dissociation-rates were measured under continuous flow of […] using a concentration range from 50 to 800 nM. Rate constant $kon$ was determined from a plot of (1(dR/dt))/t vs concentration (Karlsson et al. (1991), supra). Rate constant $Hoff$ was determined from the dissociation part of the sensorgram at the highest concentration of sFv analyzed.
Dashes indicate sequence identity. Mutations arising from PCR error and located outside V_H CDR3 are listed under the heading other mutations. F = frequency of isolated scFv. *$koff$ determined from unpurified scFv samples. Underline indicates mutated residue.

[3] = target: T1, c-erbB-2 ECD with a Ser-Gly-His6 …; remark: listed apart in the source
[4] = target: T1, c-erbB-2 ECD with a Ser-Gly-His6 …; remark: listed apart in the source

Binder | Kd [3] [nM] | Kd [4] [nM] | koff [3] [s⁻¹] | koff [4] [s⁻¹] | further results
C6MH3-B1 (scFv, C6ML3-9 sFv, VH CDR3 library B mutant; also called CH3-B1) scFv: QVQLLQSGAELKKPGESLKISCKGSGYSFTSYWIAWVRQMPGKGLEYMGLIYPGDSDTKYSPSFQGQVTISVDKSVSTAYLQWSSLKPSDSAVYFCARHDVGYCTDRTCAKWPEYFQHWGQGTLVTVSSGGGGSGGGGSGGGGSQSVLTQPPSVSAAPGQKVTISCSGSSSNIGNNYVSWYQQLPGTAPKLLIYGHTNRPAGVPDRFSGSKSGTSASLAISGFRSEDEADYYCASWDYTLSGWVFGGGTKLTVLG |  |  |  |  | Kd [1]: 0.12 nM; koff [1]: 6e-05 s⁻¹; t1/2 calculated from koff [1]: 2.25 h; Kd [2]: 0.16 nM; koff [2]: 6.7e-05 s⁻¹
C6ML3-5 (scFv) scFv: QVQLLQSGAELKKPGESLKISCKGSGYSFTSYWIAWVRQMPGKGLEYMGLIYPGDSDTKYSPSFQGQVTISVDKSVSTAYLQWSSLKPSDSAVYFCARHDVGYCSSSNCAKWPEYFQHWGQGTLVTVSSGGGGSGGGGSGGGGSQSVLTQPPSVSAAPGQKVTISCSGSSSNIGNNYVSWYQQLPGTAPKLLIYGHTNRPAGVPDRFSGSKSGTSASLAISGFRSEDEADYYCAAWDYSLSGWVFGGGTKLTVLG | 3.2 | 3.7 |  |  | 
C6ML3-23 (scFv) scFv: QVQLLQSGAELKKPGESLKISCKGSGYSFTSYWIAWVRQMPGKGLEYMGLIYPGDSDTKYSPSFQGQVTISVDKSVSTAYLQWSSLKPSDSAVYFCARHDVGYCSSSNCAKWPEYFQHWGQGTLVTVSSGGGGSGGGGSGGGGSQSVLTQPPSVSAAPGQKVTISCSGSSSNIGNNYVSWYQQLPGTAPKLLIYGHTNRPAGVPDRFSGSKSGTSASLAISGFRSEDEADYYCASWDHSLWGWVFGGGTKLTVLG | 1.5 | 1.5 | 0.0017 | 0.001 | 
C6ML3-7 (scFv) scFv: QVQLLQSGAELKKPGESLKISCKGSGYSFTSYWIAWVRQMPGKGLEYMGLIYPGDSDTKYSPSFQGQVTISVDKSVSTAYLQWSSLKPSDSAVYFCARHDVGYCSSSNCAKWPEYFQHWGQGTLVTVSSGGGGSGGGGSGGGGSQSVLTQPPSVSAAPGQKVTISCSGSSSNIGNNYVSWYQQLPGTAPKLLIYGHTNRPAGVPDRFSGSKSGTSASLAISGFRSEDEADYYCAAWDYAVSGWVFGGGTKLTVLG | 2.6 | 2.6 | 0.0017 | 0.0017 | 
C6ML3-29 (scFv) scFv: QVQLLQSGAELKKPGESLKISCKGSGYSFTSYWIAWVRQMPGKGLEYMGLIYPGDSDTKYSPSFQGQVTISVDKSVSTAYLQWSSLKPSDSAVYFCARHDVGYCSSSNCAKWPEYFQHWGQGTLVTVSSGGGGSGGGGSGGGGSQSVLTQPPSVSAAPGQKVTISCSGSSSNIGNNYVSWYQQLPGTAPKLLIYGHTNRPAGVPDRFSGSKSGTSASLAISGFRSEDEADYYCAAWDGTLWGWVFGGGTKLTVLG | 2.7 | 1.7 | 0.0022 | 0.0022 | 
C6MH3-D2 (scFv, C6ML3-9 sFv, VH CDR3 library D mutant) scFv: QVQLLQSGAELKKPGESLKISCKGSGYSFTSYWIAWVRQMPGKGLEYMGLIYPGDSDTKYSPSFQGQVTISVDKSVSTAYLQWSSLKPSDSAVYFCARHDVGYCSSSNCAKWPEWLGVWGQGTLVTVSSGGGGSGGGGSGGGGSQSVLTQPPSVSAAPGQKVTISCSGSSSNIGNNYVSWYQQLPGTAPKLLIYGHTNRPAGVPDRFSGSKSGTSASLAISGFRSEDEADYYCASWDYTLSGWVFGGGTKLTVLG |  |  |  |  | fold change of Kd against wt C6ML3-9 [1]: 7 fold; Kd [2]: 0.16 nM; koff [2]: 0.0002 s⁻¹
C6ML3-12 (scFv, also called CML-3-12) scFv: QVQLLQSGAELKKPGESLKISCKGSGYSFTSYWIAWVRQMPGKGLEYMGLIYPGDSDTKYSPSFQGQVTISVDKSVSTAYLQWSSLKPSDSAVYFCARHDVGYCSSSNCAKWPEYFQHWGQGTLVTVSSGGGGSGGGGSGGGGSQSVLTQPPSVSAAPGQKVTISCSGSSSNIGNNYVSWYQQLPGTAPKLLIYGHTNRPAGVPDRFSGSKSGTSASLAISGFRSEDEADYYCAAWDYSRSGWVFGGGTKLTVLG | 1.6 | 1.6 | 0.00072 | 0.00072 | 
C6ML3-15 (scFv, also called C6M13-15) scFv: QVQLLQSGAELKKPGESLKISCKGSGYSFTSYWIAWVRQMPGKGLEYMGLIYPGDSDTKYSPSFQGQVTISVDKSVSTAYLQWSSLKPSDSAVYFCARHDVGYCSSSNCAKWPEYFQHWGQGTLVTVSSGGGGSGGGGSGGGGSQSVLTQPPSVSAAPGQKVTISCSGSSSNIGNNYVSWYQQLPGTAPKLLIYGHTNRPAGVPDRFSGSKSGTSASLAISGFRSEDEADYYCAAWDRPLWGWVFGGGTKLTVLG | 2.2 | 2.2 |  |  | 
C6MH3-B47 (scFv, C6ML3-9 sFv, VH CDR3 library B mutant) scFv: QVQLLQSGAELKKPGESLKISCKGSGYSFTSYWIAWVRQMPGKGLEYMGLIYPGDSDTKYSPSFQGQVTISVDKSVSTAYLQWSSLKPSDSAVYFCARHDVGYCTDRSCAKWPEYFQHWGQGTLVTVSSGGGGSGGGGSGGGGSQSVLTQPPSVSAAPGQKVTISCSGSSSNIGNNYVSWYQQLPGTAPKLLIYGHTNRPAGVPDRFSGSKSGTSASLAISGFRSEDEADYYCASWDYTLSGWVFGGGTKLTVLG |  |  |  |  | fold lower Kd than C6ML3-9 [1]: 9 fold; fold lower Kd than C6.5 [1]: 145 fold; fold lower koff than C6ML3-9 [1]: 10 fold; fold lower koff than C6.5 [1]: 84 fold; Kd [2]: 0.11 nM; koff [2]: 7.5e-05 s⁻¹
C6ML3-6 (scFv) scFv: QVQLLQSGAELKKPGESLKISCKGSGYSFTSYWIAWVRQMPGKGLEYMGLIYPGDSDTKYSPSFQGQVTISVDKSVSTAYLQWSSLKPSDSAVYFCARHDVGYCSSSNCAKWPEYFQHWGQGTLVTVSSGGGGSGGGGSGGGGSQSVLTQPPSVSAAPGQKVTISCSGSSSNIGNNYVSWYQQLPGTAPKLLIYGHTNRPAGVPDRFSGSKSGTSASLAISGFRSEDEADYYCASWDYSLSGWVFGGGTKLTVLG | 3.2 | 3.2 | 0.0019 | 0.0019 | 
C6ML3-13 (scFv) scFv: QVQLLQSGAELKKPGESLKISCKGSGYSFTSYWIAWVRQMPGKGLEYMGLIYPGDSDTKYSPSFQGQVTISVDKSVSTAYLQWSSLKPSDSAVYFCARHDVGYCSSSNCAKWPEYFQHWGQGTLVTVSSGGGGSGGGGSGGGGSQSVLTQPPSVSAAPGQKVTISCSGSSSNIGNNYVSWYQQLPGTAPKLLIYGHTNRPAGVPDRFSGSKSGTSASLAISGFRSEDEADYYCAAWDATLWGWVFGGGTKLTVLG | 2.4 |  | 0.0021 |  | 
C6ML3-19 (scFv) scFv: QVQLLQSGAELKKPGESLKISCKGSGYSFTSYWIAWVRQMPGKGLEYMGLIYPGDSDTKYSPSFQGQVTISVDKSVSTAYLQWSSLKPSDSAVYFCARHDVGYCSSSNCAKWPEYFQHWGQGTLVTVSSGGGGSGGGGSGGGGSQSVLTQPPSVSAAPGQKVTISCSGSSSNIGNNYVSWYQQLPGTAPKLLIYGHTNRPAGVPDRFSGSKSGTSASLAISGFRSEDEADYYCASWDRPLWGWVFGGGTKLTVLG | 1.5 | 1.5 | 0.001 | 0.001 | 
C6MH3-C4 (scFv, C6ML3-9 sFv, VH CDR3 library C mutant; also called mutant sFv K100gV) scFv: QVQLLQSGAELKKPGESLKISCKGSGYSFTSYWIAWVRQMPGKGLEYMGLIYPGDSDTKYSPSFQGQVTISVDKSVSTAYLQWSSLKPSDSAVYFCARHDVGYCSSSNCAVWPEYFQHWGQGTLVTVSSGGGGSGGGGSGGGGSQSVLTQPPSVSAAPGQKVTISCSGSSSNIGNNYVSWYQQLPGTAPKLLIYGHTNRPAGVPDRFSGSKSGTSASLAISGFRSEDEADYYCASWDYTLSGWVFGGGTKLTVLG |  |  |  |  | fold lower Kd than wt [1]: 2.7 fold; fold lower koff than C6ML3-9 [1]: 3.8 fold; Kd [2]: 0.37 nM; koff [2]: 0.0002 s⁻¹
C6ML3-14 (scFv) scFv: QVQLLQSGAELKKPGESLKISCKGSGYSFTSYWIAWVRQMPGKGLEYMGLIYPGDSDTKYSPSFQGQVTISVDKSVSTAYLQWSSLKPSDSAVYFCARHDVGYCSSSNCAKWPEYFQHWGQGTLVTVSSGGGGSGGGGSGGGGSQSVLTQPPSVSAAPGQKVTISCSGSSSNIGNNYVSWYQQLPGTAPKLLIYGHTNRPAGVPDRFSGSKSGTSASLAISGFRSEDEADYYCAAWDDPLWGWVFGGGTKLTVLG | 1 | 1.1 | 0.00077 | 0.00076 | 
C6ML3-11 (scFv) scFv: QVQLLQSGAELKKPGESLKISCKGSGYSFTSYWIAWVRQMPGKGLEYMGLIYPGDSDTKYSPSFQGQVTISVDKSVSTAYLQWSSLKPSDSAVYFCARHDVGYCSSSNCAKWPEYFQHWGQGTLVTVSSGGGGSGGGGSGGGGSQSVLTQPPSVSAAPGQKVTISCSGSSSNIGNNYVSWYQQLPGTAPKLLIYGHTNRPAGVPDRFSGSKSGTSASLAISGFRSEDEADYYCAAWDYALWGWVFGGGTKLTVLG | 3.6 |  | 0.0022 |  | 
